Measured values reported in article PMC5863359, “A novel acetyl xylan esterase enabling complete deacetylation of substituted xylans” (Biotechnology for Biofuels, 2018).

Legend:
[1] = substrate: CC(=O)Oc1ccc([N+](=O)[O-])cc1; test: spectrophotometric hydrolysis assay (A410), Michaelis-Menten fit; type: biochemical, Flavobacterium johnsoniae; settings: 50 mM HEPES pH 8.0, 30 °C
Excerpt: spectrophotometric hydrolysis assay (A410), Michaelis-Menten fit on FjoAcXE

[2] = substrate: CC(=O)Oc1ccc2c(C)cc(=O)oc2c1; test: spectrophotometric hydrolysis assay (A354), Michaelis-Menten fit; type: biochemical, Flavobacterium johnsoniae; settings: 50 mM HEPES pH 8.0, 10% DMSO, 30 °C
Excerpt: spectrophotometric hydrolysis assay (A354), Michaelis-Menten fit on FjoAcXE

B1: FjoAcXE (Flavobacterium johnsoniae UW101) (protein)
chain: GCTSNKALIKTGDKKEDQNWTGTWATAQMLVEPKNMPPEPGLAQNTLRQIIKVSLGGKQIRLRFSNLFSDQPAVLKSVSVANVTEAPAVDIKTQKILSFKGSPQVTLGADEVVYSDAFDFELQPGQLLAITIHYGEISSNVSGHPGSRTTSYILQGDHINNESFAGAVKTDHWYSIMGVDISSVKNESNVVCLGNSIIDGRGSGTNKQNRWTDILASRLNANKNTAHIGVLNLGIGGNCVVRGGLGPTALNRFDRDVLSQSGTKWLIILEGINDIGGIRKAEDASVTAKEIIEGYKVMIDKAHAKGIKVFGGTILPFEKSFYDAPFKQDARDIVNEWIRTKGNFDAVIDFDKAMASDVGSKTILPDMHDNDFLHPNEKGYQRMGETVDLDLFQ
notes: predicted signal peptide (residues 1-21) removed; N-terminal His6-tag (p15TV-L); codon-optimized synthetic gene, expressed in E. coli BL21(DE3) codon plus
Km [1]: 900 ± 100 µM
kcat [1]: 121 ± 3 s⁻¹
kcat/Km [1]: 128000 M⁻¹ s⁻¹
Km [2]: 800 ± 100 µM
kcat [2]: 95.1 ± 4.4 s⁻¹
kcat/Km [2]: 115000 M⁻¹ s⁻¹
